In the Immune Epitope Database (IEDB) one finds Kd and IC50 data, which are given here for 17 sequences.

One test deals with HLA-B*58:01. Description: IEDB peptide-MHC binding, purified MHC/competitive/radioactivity; filed as Kd, often an IC50 or EC50 that approximates it; ≥ and ≤ were set here for values at or beyond the usual limits of such assays.
The target in another test is HLA-B*57:01. The test is described as above.
In the next test the target is HLA-A*24:02. Description: IEDB peptide-MHC binding, purified MHC/competitive/fluorescence; ≥ and ≤ were set here for values at or beyond the usual limits of such assays.
The target in the next test is HLA-B*27:05. Description: IEDB peptide-MHC binding, purified MHC/direct/fluorescence; filed as Kd, often an IC50 or EC50 that approximates it; ≥ and ≤ were set here for values at or beyond the usual limits of such assays. Particulars: source organism: Lassa virus Josiah.
In a further test the target is HLA-B*48:01. The description is as above. Particulars: source organism: Lassa virus Josiah.
In a further test the target is HLA-B*15:01. Description: IEDB peptide-MHC binding, purified MHC/competitive/radioactivity; filed as Kd, often an IC50 or EC50 that approximates it; ≥ and ≤ were set here for values at or beyond the usual limits of such assays. The settings on record: source organism: Dengue virus 1 Brazil/97-11/1997.
A further test has as its target HLA-A*30:02. The description is as above. The settings on record: source organism: Dengue virus 1 Brazil/97-11/1997.
The target in a further test is HLA-A*68:02. The description is as above.
The next test deals with HLA-A*32:01. Described as above. Particulars: source organism: Dengue virus 3 Martinique/1243/1999.
Test [1] deals with HLA-A*02:01. The test is described as follows: IEDB peptide-MHC binding, purified MHC/competitive/fluorescence; ≥ and ≤ were set here for values at or beyond the usual limits of such assays. The settings on record: source organism: Sudan ebolavirus.
The target in another test is HLA-A*11:01. Description: IEDB peptide-MHC binding, purified MHC/competitive/radioactivity; filed as Kd, often an IC50 or EC50 that approximates it; ≥ and ≤ were set here for values at or beyond the usual limits of such assays.
Another test deals with HLA-B*51:01. Described as above.
For a further test, the target named is HLA-A*02:06. Described as above.
In the next test the target is HLA-B*08:01. Described as above. The settings on record: source organism: Hepacivirus hominis.
For the next test, the target named is HLA-B*35:01. Described as above.
Another test addresses HLA-B*54:01. The description is as above.
Test [2] has as its target HLA-A*02:01. The test is described as above.
The target in another test is HLA-A*68:01. Described as above.
The target in the next test is HLA-A*02:02. The test is described as above.
Another test concerns the target HLA-A*31:01. Described as above.
The target in a further test is HLA-B*53:01. The description is as above.
A further test has as its target HLA-A*33:01. The test is described as above.
The target of the next test is HLA-A*03:01. The test is described as above.
In a further test the target is HLA-A*02:03. Described as above.
For a further test, the target named is HLA-A*01:01. The test is described as above. The settings on record: source organism: Hepacivirus hominis.
A further test concerns the target HLA-B*07:02. The description is as above.
The mark [3] stands for this setting: source organism: Dengue virus 4 Philippines/H241/1956.
Where [4] appears, read: source organism: Dengue virus 2 Jamaica/1409/1983.
The mark [5] stands for this setting: source organism: Zaire ebolavirus.
Where [6] appears, read: source organism: Hepacivirus hominis.
Where [7] appears, read: source organism: Vaccinia virus WR.

Some results are limits rather than exact numbers.

Take VSSVNTTSKM: the values for the Kd with HLA-B*58:01 (setting [3]) and with HLA-B*57:01 (setting [3]) were 1450 nM and 12100 nM, respectively.

Regarding GAAFSGVSW, the Kd (usually the constant that tells how readily two partners part at equilibrium) in the test with HLA-B*58:01 (setting [4]) is 126 nM; with HLA-B*57:01 (setting [4]) it was 22.8 nM.

Take IWMAPSLTE: in the test with HLA-A*24:02 (setting [5]), the IC50 (as a rule, the midpoint of a concentration-inhibition curve) was 256 nM.

Take KQAKAPESK: the Kd in the test with HLA-B*27:05 is 704 nM; with HLA-B*48:01, no less than 20000 nM.

Turning to AVLMLVAHY, the dissociation constant (Kd) in the test with HLA-B*15:01 turned out to be 51.2 nM; in the test with HLA-A*30:02, 2.19 nM.

For SASSMVNGVV, the results for the Kd with HLA-B*58:01 (setting [4]), with HLA-A*68:02 (setting [4]) and with HLA-B*57:01 (setting [4]) were 2040 nM, 10.2 nM and 227 nM, respectively.

As to RSLIGNEEF, the equilibrium dissociation constant (Kd) in the test with HLA-A*32:01 worked out at 4650 nM; with HLA-B*58:01 (source organism: Dengue virus 3 Martinique/1243/1999) it was 15.4 nM.

Regarding KFRKSSFFV, the IC50 came out at 449 nM in the test with HLA-A*24:02 (source organism: Sudan ebolavirus) and 7760 nM in the test with HLA-A*02:01 [1].

Turning to RNWAHSSL, the Kd with HLA-A*11:01 (setting [6]) was no less than 87000 nM; in the test with HLA-B*51:01 (setting [6]) it was no less than 51200 nM; in the test with HLA-A*02:06 (setting [6]) it was no less than 58300 nM; in the test with HLA-B*08:01, no less than 67500 nM; with HLA-B*35:01 (setting [6]), no less than 87800 nM; with HLA-B*54:01 (setting [6]), no less than 87700 nM. Moreover, the dissociation constant Kd in the test with HLA-A*02:01 [2] (setting [6]) is no less than 69400 nM; with HLA-A*68:01 (setting [6]) it was no less than 87900 nM; with HLA-A*02:02 (setting [6]) it was no less than 70000 nM; in the test with HLA-A*31:01 (setting [6]), 17800 nM; with HLA-B*53:01 (setting [6]), no less than 49500 nM; with HLA-A*33:01 (setting [6]), no less than 87600 nM. In addition, the Kd is no less than 69800 nM with HLA-A*68:02 (setting [6]); no less than 87300 nM with HLA-A*03:01 (setting [6]); no less than 87700 nM with HLA-A*02:03 (setting [6]); 2200 nM with HLA-A*01:01; no less than 57400 nM with HLA-B*07:02 (setting [6]).

For KLHSGKDVF, the Kd with HLA-B*15:01 worked out at 4.82 nM.

In turn, ANAGQFLSF showed an IC50 in the test with HLA-A*24:02 (setting [5]) of 578 nM.

For the sequence RLLIWAYLSK, the Kd was 0.114 nM with HLA-A*11:01 (setting [7]); no less than 34000 nM with HLA-B*51:01 (setting [7]); 14800 nM with HLA-A*02:06 (setting [7]); no less than 69900 nM in the test with HLA-B*35:01 (setting [7]); 11300 nM with HLA-B*54:01 (setting [7]); 4990 nM with HLA-A*02:01 [2] (setting [7]). For the same sequence, the Kd is 1470 nM with HLA-A*68:01 (setting [7]); no less than 42300 nM with HLA-A*02:02 (setting [7]); 447 nM with HLA-A*31:01 (setting [7]); 10400 nM in the test with HLA-B*53:01 (setting [7]); 4870 nM in the test with HLA-A*33:01 (setting [7]); no less than 40600 nM with HLA-A*68:02 (setting [7]). The Kd with HLA-A*03:01 (setting [7]) is 0.159 nM; with HLA-A*02:03 (setting [7]), 17300 nM; with HLA-B*07:02 (setting [7]), no less than 69600 nM.

Regarding MLAVWNRVW, the values for the Kd with HLA-B*58:01 (setting [4]) and with HLA-B*57:01 (setting [4]) were 113 nM and 20.6 nM, respectively.

As to TLAAMPEEE, in the test with HLA-A*24:02 (setting [5]), the IC50 amounted to 10000 nM.

Consider ISSTPFAEYT, for which, in the test with HLA-B*58:01 (setting [3]), the equilibrium dissociation constant (Kd) worked out at 2050 nM.

As for FGSVGGLFTS, in the test with HLA-B*58:01 (source organism: Dengue virus 4 Dominica/814669/1981), the Kd worked out at 220 nM.

For the sequence QIFEVYWYL, the Kd with HLA-A*11:01 (setting [7]) was 67.3 nM; with HLA-B*51:01 (setting [7]) it was 5540 nM; with HLA-A*02:06 (setting [7]), 19.2 nM; with HLA-B*35:01 (setting [7]), 6500 nM; with HLA-B*54:01 (setting [7]), no less than 5000 nM; with HLA-A*68:01 (setting [7]), 873 nM. For the same sequence, the Kd in the test with HLA-A*02:02 (setting [7]) was found to be 1.12 nM; in the test with HLA-A*31:01 (setting [7]), 143 nM; with HLA-B*53:01 (setting [7]), 1400 nM; with HLA-A*33:01 (setting [7]), 775 nM; in the test with HLA-A*68:02 (setting [7]), 8.89 nM; with HLA-A*03:01 (setting [7]) it was 1060 nM. Moreover, the Kd with HLA-A*02:03 (setting [7]) was 186 nM; in the test with HLA-B*07:02 (setting [7]), 16100 nM.
